# According to US20220289859A1:
# Biological target: FcγRIIIa (UniProt P08637)
# Assay: SPR as in Example 4; glyco-enriched samples of belantamab
# Sequence of FcγRIIIa (P08637 17-208 limits assumed): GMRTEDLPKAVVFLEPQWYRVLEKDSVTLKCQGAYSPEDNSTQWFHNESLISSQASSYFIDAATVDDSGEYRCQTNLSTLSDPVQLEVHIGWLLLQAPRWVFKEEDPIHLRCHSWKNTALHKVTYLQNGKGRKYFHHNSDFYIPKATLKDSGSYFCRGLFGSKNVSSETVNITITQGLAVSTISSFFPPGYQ
substance,measurement,value
belantamab deglycosylated with PNGaseF (antibody),Specific FcγRIIIa binding activity,8%
